Test results reported in patent US7871610B2, “Antibodies to Tie1 ectodomain” (Dyax Corp., priority 2003, dated 2011).
Values belong to the molecule of their own block, whether it stands above or below them.

Key:
Tie1 = Tie1 (Homo sapiens, UniProt P35590); experiment: Immunofluorescence staining of Tie1-transfected COS1 cells; assay type: binding; conditions: COS1 cells transfected with pcDNA3-Tie1-V5; antibodies 5 μg/ml
Description: COS1 cells on the glass coverslips were transiently transfected with pcDNA3-Tie1-V5 (the V5-epitope was added to the 3′ terminus of pcDNA3-Tie1) (1 μg DNA per 10 cm cell culture plate) using FUGENE™ 6 (Roche) according to manufacturer's instruction and incubated for 48 h before staining. Cells were fixed in 4% paraformaldehyde for 10 min at 4° C. If required, the cells were permeabilized with 0.2% Triton X-100 in PBS for 5 min. Unspecific binding sites were blocked by incubation with 1% BSA in PBS for 30 min. The cells were then stained with anti-Tie1 antibodies (5 μg/ml) and anti-V5 antibodies for 1 h at room temperature, followed by incubation with FITC— conjugated anti-human antibodies (DAKO, 40 μg/ml) and TRITC-conjugated anti-mouse antibodies (DAKO, 15 μg/ml) for 30 min. Hoechst 33258 fluorochrome (Sigma, 0.5 μg/ml) was used for the staining of the nuclei.

[1] = molecular target: T1, Tie1-EpoR chimeric receptor (UniProt P14753+P35590); experiment: Ba/F3 bioassay (Tie1/EpoR chimeric BaF3 cell assay), MTT viability; assay type: cell-based, human; conditions: 100 ng/ml E3 IgG together with 100 (1:1) or 500 (1:5) ng/ml of the other antibody
T1 construct: the PCR amplified extracellular part of human Tie1 (bp 37-2316 of X60975); expressed in transfected cells
T1 sequence (P35590+P14753 with tags, fused parts or gaps): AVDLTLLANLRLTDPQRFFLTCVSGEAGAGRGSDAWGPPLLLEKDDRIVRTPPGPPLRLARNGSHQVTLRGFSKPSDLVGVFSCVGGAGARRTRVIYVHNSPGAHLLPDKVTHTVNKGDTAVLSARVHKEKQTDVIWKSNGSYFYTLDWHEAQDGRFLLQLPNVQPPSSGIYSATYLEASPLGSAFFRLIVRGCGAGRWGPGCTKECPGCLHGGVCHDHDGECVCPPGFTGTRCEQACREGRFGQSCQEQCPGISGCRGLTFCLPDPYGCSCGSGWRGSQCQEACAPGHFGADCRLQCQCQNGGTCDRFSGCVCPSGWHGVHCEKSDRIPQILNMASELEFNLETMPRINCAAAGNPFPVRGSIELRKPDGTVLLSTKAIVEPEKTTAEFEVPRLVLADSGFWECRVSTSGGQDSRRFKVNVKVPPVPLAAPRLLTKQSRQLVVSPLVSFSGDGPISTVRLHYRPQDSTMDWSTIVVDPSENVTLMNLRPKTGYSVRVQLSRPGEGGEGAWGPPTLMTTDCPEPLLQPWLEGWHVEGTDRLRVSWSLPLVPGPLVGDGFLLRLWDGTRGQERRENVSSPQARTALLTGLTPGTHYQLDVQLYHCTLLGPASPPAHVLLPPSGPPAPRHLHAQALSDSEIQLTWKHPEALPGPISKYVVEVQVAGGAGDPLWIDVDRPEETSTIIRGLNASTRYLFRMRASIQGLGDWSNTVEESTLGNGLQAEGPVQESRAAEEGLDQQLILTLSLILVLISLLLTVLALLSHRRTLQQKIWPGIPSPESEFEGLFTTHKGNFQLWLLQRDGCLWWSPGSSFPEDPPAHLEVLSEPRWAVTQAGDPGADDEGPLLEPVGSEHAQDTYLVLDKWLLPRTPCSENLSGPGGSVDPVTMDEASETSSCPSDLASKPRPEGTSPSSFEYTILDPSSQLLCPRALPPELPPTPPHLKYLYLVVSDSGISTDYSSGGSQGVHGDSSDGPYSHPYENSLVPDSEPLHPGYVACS
Text: To generate Tie1-EpoR expressing Ba/F3 cells for the bioassay, Ba/F3 pre-B cells were stably transfected with a nucleic acid that expresses chimeric receptor containing the extracellular domain of human Tie1 fused with the transmembrane and cytoplasmic domains of the mouse erythropoietin receptor. The nucleic acid used was a Tie1-EpoR chimeric cDNA in a pEF-BOS expression vector. The nucleic acid encoding the chimeric receptor was constructed by cloning the PCR amplified extracellular part of human Tie1 (bp 37-2316 of X60975) as EcoRI-BglII fragment into mEpoR-pcDNA vector. The cDNA encoding for the chimeric receptor consisting of the extracellular part of Tie1 fused with the transmembrane and intracellular domains of EpoR was subcloned into the pEF-BOS expression vector. Vector was linearized and co-transfected into Ba/F3 cells with pcDNA3.1(+) Zeo vector (Invitrogen). Stable cell pools were generated by selection with 250 μg/ml Zeocin. The expression of Tie1/EpoR fusion protein in several clones was analyzed by Western blotting with an antibody against EpoR.
To perform the assays, Ba/F3 cells expressing the Tie 1-EpoR chimera were split in 96-well microtiter plates at 50 000 cells/well in the presence of the indicated concentrations of anti-Tie1 antibodies. As controls, Zeocin resistant pools not expressing the Tie1-EpoR were used. After 48 h, the viability of the cells was determined by adding MTT (3-(4,5-dimethylthiazol-2-yl)-2,5-diphenyl tetrazolium bromide (Sigma), 0.5 mg/ml), followed by further 2 h of culture, addition of an equal volume of cell lysis solution (10% SDS, 10 mM HCl) and incubation overnight at 37° C. Absorbance was measured at 540 nm.
Although no ligand for Tie1 has been identified, we used the following efficient screening method for Tie1-binding proteins. Interleukin-3 dependent pre-B-lymphocyte (Ba/F3) cells were transfected with a construct that expresses a Tie1-EpoR fusion protein. Since Ba/F3 cells are IL-3 dependent, they die unless IL-3 is provided. However, Tie-EpoR receptor expressing Ba/F3 cells can survive and proliferate if the medium contains a Tie1-binding protein, either a natural ligand or an artificial mimetic. Cell survival can be quantitated, e.g., by colorimetric MTT-assay, which measures mitochondrial activity.

Mouse Tie 1-Fc = molecular target: T2, Mouse Tie 1-Fc (Mus musculus, UniProt Q06806); experiment: BIAcore, E3 Fabs on mouse Tie1-Fc; assay type: binding; conditions: E3 Fab over biotinylated mouse Tie-1 Fc on streptavidin chip; 1:1 model
T2 sequence (Q06806 23-755 limits assumed): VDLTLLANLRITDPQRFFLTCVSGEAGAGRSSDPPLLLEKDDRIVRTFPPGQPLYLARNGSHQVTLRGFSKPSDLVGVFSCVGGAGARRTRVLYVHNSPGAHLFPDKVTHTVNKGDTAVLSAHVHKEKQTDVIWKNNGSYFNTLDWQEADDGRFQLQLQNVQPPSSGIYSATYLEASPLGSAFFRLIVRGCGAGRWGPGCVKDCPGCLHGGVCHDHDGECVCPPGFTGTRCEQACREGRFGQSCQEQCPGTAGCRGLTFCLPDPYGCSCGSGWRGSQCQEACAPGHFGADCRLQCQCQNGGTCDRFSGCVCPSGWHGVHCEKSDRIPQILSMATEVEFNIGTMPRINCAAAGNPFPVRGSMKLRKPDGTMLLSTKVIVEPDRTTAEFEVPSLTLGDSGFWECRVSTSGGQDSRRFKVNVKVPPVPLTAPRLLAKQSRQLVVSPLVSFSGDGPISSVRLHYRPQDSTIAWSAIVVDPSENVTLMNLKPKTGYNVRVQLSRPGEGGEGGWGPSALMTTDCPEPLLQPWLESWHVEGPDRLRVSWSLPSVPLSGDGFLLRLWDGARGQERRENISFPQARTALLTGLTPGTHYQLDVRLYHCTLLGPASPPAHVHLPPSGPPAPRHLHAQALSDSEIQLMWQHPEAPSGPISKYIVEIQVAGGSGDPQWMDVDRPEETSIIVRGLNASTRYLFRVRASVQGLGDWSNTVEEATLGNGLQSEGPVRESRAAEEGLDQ
Description: Mouse Tie 1-Fc antigen (0.5 mg/ml stock) was biotinylated using established procedures and after dilution 1/100 fold in HBS this was then used for capturing to a streptavidin chip. This was coated to a resonance value of 740RU. All analysis was performed in HBS buffer. The parental Fab E3 0.587 mg/ml (11740 nM) was diluted 1/587 in HBS+BSA to obtain a stock of 20 nM and the germlined Fab E3 0.025 mg/ml (500 nM) was diluted 1/25 in HBS+BSA to obtain a stock of 20 nM. Serial dilutions were made of each Fab preparation to obtain 10 nM, 5 nM, 2.5 nM, and 1.25 nM. For the association phase samples were injected at 30 μl/min for 4 minutes using kinject program. This was followed by a 10 minutes dissociation phase, any remaining sample was stripped from the Tie-1 Fc surface at a flow of 50 μl/min with a single injection of 50 mM NaOH+1 M NaCl for 18 seconds. All samples were run and analyzed in duplicate.
Sensorgrams were analyzed using the simultaneous ka/kd fitting program with 1:1 model in the BIAEVALUATION™ software 3.1.

[2] = molecular target: T3, recombinant human Tie1-Fc (Homo sapiens, UniProt P35590); experiment: BIAcore, parental and germlined E3b Fabs on human Tie-1/Fc; assay type: binding; conditions: E3 Fab over human Tie-1/Fc coated on CM5 chip; 1:1 model
T3 construct: selected against the Tie1 extracellular domain fused to human Fc or to a histidine purification tag
T3 sequence (P35590 22-759 limits assumed): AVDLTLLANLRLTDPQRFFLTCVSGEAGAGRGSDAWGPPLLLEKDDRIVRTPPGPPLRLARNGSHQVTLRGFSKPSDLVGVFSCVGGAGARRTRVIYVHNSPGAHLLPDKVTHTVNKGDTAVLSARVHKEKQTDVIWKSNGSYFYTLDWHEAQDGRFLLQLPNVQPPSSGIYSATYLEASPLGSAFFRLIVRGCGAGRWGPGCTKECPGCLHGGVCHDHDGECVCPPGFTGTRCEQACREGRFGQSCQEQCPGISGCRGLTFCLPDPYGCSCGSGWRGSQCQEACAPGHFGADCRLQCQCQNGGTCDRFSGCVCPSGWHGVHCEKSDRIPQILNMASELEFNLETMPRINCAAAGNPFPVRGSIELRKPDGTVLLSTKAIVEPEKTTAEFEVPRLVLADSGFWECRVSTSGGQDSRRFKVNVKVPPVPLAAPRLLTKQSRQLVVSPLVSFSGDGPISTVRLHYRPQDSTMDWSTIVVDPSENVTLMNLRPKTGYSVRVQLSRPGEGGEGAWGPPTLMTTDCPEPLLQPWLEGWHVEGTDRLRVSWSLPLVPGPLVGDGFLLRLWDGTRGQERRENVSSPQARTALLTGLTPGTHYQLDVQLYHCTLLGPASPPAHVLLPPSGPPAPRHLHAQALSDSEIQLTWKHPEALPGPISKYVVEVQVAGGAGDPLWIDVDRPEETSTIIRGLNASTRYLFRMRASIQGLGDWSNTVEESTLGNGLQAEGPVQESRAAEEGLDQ
Description: Recombinant human Tie-1/Fc was coated on a CM5 chip. The surface of the chip was first activated with a 7-minute pulse of 0.05 M NHS/0.2 M EDC, then Tie-1/Fc (2 μg/ml in 10 mM sodium acetate, pH 4.0) was run over the chip surface until 750 RUs were coated on the surface. All flow cells were subsequently deactivated with a 7-minute pulse of 1 M ethanolamine hydrochloride, pH 8.5. All further experiments were performed in HBS buffer.
The parental and the germlined E3b Fabs were prepared. A series of dilution (50, 25, 12.5, 6.25 and 3.125 nM) was prepared in HBS buffer. Samples were injected at 30 μl/min for 5.3 minutes using the KINJECT™ program. This was followed by a 10-minute dissociation phase, and the remaining Fab was stripped from the surface with a single 18-sec injection of 50 mM NaOH/1 M NaCl.
Sensorgrams were analyzed using the simultaneous ka/kd fitting program from the BIAEVALUATION™ software 3.1 assuming a 1:1 model.

Tie1, sequence (P35590 22-1138): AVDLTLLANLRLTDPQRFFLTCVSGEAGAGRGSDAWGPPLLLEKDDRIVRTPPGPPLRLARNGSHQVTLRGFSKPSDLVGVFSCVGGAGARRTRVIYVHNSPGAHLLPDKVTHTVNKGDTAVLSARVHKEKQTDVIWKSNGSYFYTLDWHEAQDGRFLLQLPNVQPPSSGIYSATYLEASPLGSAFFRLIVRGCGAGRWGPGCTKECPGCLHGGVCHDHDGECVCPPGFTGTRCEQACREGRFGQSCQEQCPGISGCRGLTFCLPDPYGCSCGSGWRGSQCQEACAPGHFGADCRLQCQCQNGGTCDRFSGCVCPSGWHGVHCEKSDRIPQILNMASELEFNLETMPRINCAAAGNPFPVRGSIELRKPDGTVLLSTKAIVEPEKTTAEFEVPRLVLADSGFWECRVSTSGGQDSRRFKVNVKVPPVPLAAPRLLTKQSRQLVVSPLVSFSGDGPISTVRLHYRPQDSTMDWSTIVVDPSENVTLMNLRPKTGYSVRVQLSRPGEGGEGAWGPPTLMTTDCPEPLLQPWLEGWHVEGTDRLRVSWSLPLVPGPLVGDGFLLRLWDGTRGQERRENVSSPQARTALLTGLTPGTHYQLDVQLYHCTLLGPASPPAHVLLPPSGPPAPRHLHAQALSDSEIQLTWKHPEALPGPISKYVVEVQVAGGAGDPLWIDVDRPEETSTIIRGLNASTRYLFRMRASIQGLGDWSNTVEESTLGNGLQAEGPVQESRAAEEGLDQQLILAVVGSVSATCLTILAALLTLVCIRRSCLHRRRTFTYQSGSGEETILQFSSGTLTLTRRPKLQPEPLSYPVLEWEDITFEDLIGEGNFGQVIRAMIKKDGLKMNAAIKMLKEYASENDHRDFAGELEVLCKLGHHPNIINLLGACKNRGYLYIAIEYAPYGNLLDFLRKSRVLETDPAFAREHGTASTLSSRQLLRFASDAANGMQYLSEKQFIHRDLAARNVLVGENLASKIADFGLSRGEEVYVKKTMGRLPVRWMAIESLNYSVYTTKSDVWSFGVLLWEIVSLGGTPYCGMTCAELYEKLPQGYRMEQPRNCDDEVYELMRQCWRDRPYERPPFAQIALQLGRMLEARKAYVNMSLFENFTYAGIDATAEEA

- IF: Tie1-transfected (Tie1): weak
B1: P-B1: anti-Tie1 antibody; VH SEQ ID NO:20, VL SEQ ID NO:22 (antibody, V domains shown)
VH: EVQLLESGGGLVQPGGSLRLSCAASGFTFSRYPMVWVRQAPGKGLEWVSVISPSGGQTFYADSVKGRFTISRDNSKNTLYLQMNSLRAEDTAVYYCARGVLTTAFDIWGQGTMVTVSSASTKGPSVFPLAPSSKAPLGAQRPWAAWSR
VL: QDIQMTQSPSSLSASVGDRVTITCRASQNINSYLNWYQQKPGQAPKLLIYAASNLETAVPSRFSGSGSGTDFTLTISSLQPEDFATYYCQQFNTYPLTFGGG
modifications: Synthetically generated peptide
- effect on the survival effect of E3 IgG in Tie1-EpoR Ba/F3 assay [1]: inhibited the viability effect of E3 IgG to some extent

- ka (Mouse Tie 1-Fc): 246000 M⁻¹ s⁻¹
- kd (Mouse Tie 1-Fc): 0.00095 s⁻¹
B2: E3 Fab parental (antibody, V domains shown)
VH: EVQLLESGGGLVQPGGSLRLSCAASGFTFSMYGMVWVRQAPGKGLEWVSVISPSGGNTGYADSVKGRFTISRDNSKNTLYLQVNSLRAEDTAVYYCARAPRGYSYGYYYWGQGTLVTVSSASTKGPSVFPLAPSSKSTSGG
VL: DIQMTQSPLSLSASVGDRVTITCRASQGIGHYLAWYQQKPGKVPKLLIYTASTLQSGVPSRFSGSGSGTDFTLTINSLQPEDVATYYCQQFNSYPHTFGQGTRLDIK

- ka [2]: 88100 M⁻¹ s⁻¹
- kd [2]: 0.00105 s⁻¹
B3: E3 Fab Parental (antibody, V domains shown)
VH: B2 VH
VL: B2 VL

- IF: Tie1-transfected (Tie1): cross
B4: P-F4: anti-Tie1 antibody; VH SEQ ID NO:48, VL SEQ ID NO:50 (antibody, V domains shown)
VH: EVQLLESGGGLVQPGGSLRLSCAASGFTFSAYMMSWVRQAPGKGLEWVSSIYPSGGYTYYADSVKGRFTISRDNSKNTLYLQMNSLRAEDTAVYYCARGLRGGPDYWGQGTLVTVSSASTKGPSVFPLAPSSKSTSGGTAALG
VL: QDIQMTQSPSTLSAYVGDSVTITCRASQSVRRSLAWYQQRPGKAPKSLIYKASTLETGVPPRFSGSGSGTEFTLTISSLQPEDSAIYYCQQYGSFPLTFGGG
modifications: Synthetically generated peptide
